# Source: PMC4047826
# Target: Dead streptavidin subunit with a polyaspartate insertion in the 3/4 loop (Dd) (Streptomyces avidinii) (UniProt P22629)
# Experiment: mixed refold, anion-exchange chromatography and SDS-PAGE without boiling; subunits refolded together from inclusion bodies into PBS; tetramers resolved on Mono-Q (20 mM Tris-HCl pH 8.0, 0-1 M NaCl gradient); peaks run on SDS-PAGE unboiled (tetramer) or boiled (subunit composition), Coomassie
substance,measurement,value
Dead streptavidin subunit with a polyaspartate insertion in the 3/4 loop (Dd) (from UniProt P22629 37-163) (domain or fragment),stoichiometry N,4
